Reference: patent publication US20230405070A1, “PLECTRANTHUS AMBOINICUS EXTRACT FOR USE IN INHIBITING IMMUNE RESPONSES” (Oneness Biotech Co., Ltd., priority 2022, published 2023)

B1: GCSF: recombinant GCSF protein co-administrated with M1-polarizing cytokines (protein, UniProt P09919 31-207, looked up)
Granulocyte …: TPLGPASSLPQSFLLKCLEQVRKIQGDGAALQEKLVSECATYKLCHPEELVLLGHSLGIPWAPLSSCPSQALQLAGCLSQLHSGLFLYQGLLQALEGISPELGPTLDTLQLDVADFATTIWQQMEELGMAPALQPTQGAMPAFASAFQRRAGGVLVASHLQSFLEVSYRVLRHLAQP

System: M1 macrophages
Experiment: Recombinant GCSF / CXCL3 co-administered with M1-polarizing cytokines
Format: cell-based, human
Experimental: For detection of M1 and M2 macrophage markers, cultured cells were suspended then blocked by 20 μL/10^4 of FcR Blocking Reagent (Miltenyi Biotec, Cologne, Germany). Antibodies listed in Table 1 and isotype signal for normalization were listed in Table 3 were used at 5 μL per 10^5 cells.
Cell lysates for immunoblotting were prepared using an M-PER mammalian protein extraction kit containing protease and phosphatase inhibitor cocktail (Thermo-Fisher Scientific). Immunoblotting using the indicated antibodies (listed in Table 1) was performed as described previously (Lu et al., J Immunother Cancer, 2020).
Next, experiments were performed to analyze whether the genes altered by ON101 treatment in diabetic wounds could be produced by ADPCs upon ON101 treatment and focused on candidate genes detected in wound tissues in ON101-treated db/db mice (FIGS. 4E-4F). […] To test whether GCSF and CXCL3 might be involved in the marker switch between M1 and M2 macrophages, recombinant GCSF and CXCL3 proteins, with or without their neutralizing antibodies, were co-administrated with M1-polarizing cytokines. […] Both GCSF- and CXCL3-mediated inductions of M2a/c markers were abolished by the corresponding neutralizing antibodies (FIGS. 8G-8H). In addition, both GCSF and CXCL3 treatments activated Stat3 signaling pathways, whereas GCSF activated Akt phosphorylation, which was again abolished by their corresponding antibodies (FIG. 8I).

[1] = recombinant protein with M1-polarizing cytokines, 48 h

Molecule | Stat3 signaling (immunoblot) | CD163 expression [1] | Akt phosphorylation (immunoblot) | CD206 expression [1]
CXCL3: recombinant CXCL3 protein co-administrated with M1-polarizing cytokines | activated | only induced CD163 expression | – | –
B1 | activated | concentration-dependent increase | activated | concentration-dependent increase
